Laboratory results reported in paper PMC9119445, “Ustilago maydis telomere protein Pot1 harbors an extra N-terminal OB fold and regulates homology-directed DNA repair factors in a dichotomous and context-dependent manner”.

Tests used:
[1] = molecular target: Ustilago maydis Rad51 (U. maydis) (UniProt Q99133)
UmPot1 OB3 = UmPot1 OB3 (Ustilago maydis, UniProt A0A0D1CUA9 701-1050); experiment: EMSA; 25 mM HEPES-KOH pH 7.5, 5% glycerol, 3 mM MgCl2, 0.1 mM EDTA, 1 mM DTT, 0.5 ug/ul BSA, 1-10 nM probe, 22 C, 15 min; 6% native PAGE in 1x TBE; settings: protein: recombinant; tags: C-terminal FLAG; His6-SUMO removed by ULP1; label: 5'-32P
[2] = molecular target: UmPot1 N-terminal fragment (OB-N) (Ustilago maydis, UniProt A0A0D1CUA9 1-350); experiment: as above; settings: protein: recombinant; tags: C-terminal FLAG; His6-SUMO removed by ULP1; label: 5'-32P
UmPot1 OB12 (OB1-OB2) = UmPot1 OB12 (OB1-OB2) (Ustilago maydis, UniProt A0A0D1CUA9 351-700); experiment: as above; settings: protein: recombinant; tags: C-terminal FLAG; His6-SUMO removed by ULP1; label: 5'-32P

Sequence of Ustilago maydis Rad51 (U. maydis) (Q99133 whole entry): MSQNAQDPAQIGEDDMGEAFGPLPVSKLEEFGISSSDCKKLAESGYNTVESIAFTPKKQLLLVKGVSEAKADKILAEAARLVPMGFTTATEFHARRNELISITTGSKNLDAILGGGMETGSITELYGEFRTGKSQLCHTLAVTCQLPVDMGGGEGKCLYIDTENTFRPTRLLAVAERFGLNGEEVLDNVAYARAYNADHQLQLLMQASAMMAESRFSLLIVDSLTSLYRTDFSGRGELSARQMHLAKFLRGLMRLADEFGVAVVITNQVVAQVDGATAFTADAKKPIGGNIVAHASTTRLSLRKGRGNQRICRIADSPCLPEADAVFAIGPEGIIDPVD

Ustilago maydis Pot1 with a C-terminal FLAG tag (Pot1-FLAG) (natural protein)
strand exchange activity of Rad51 (oligonucleotide-based assay, 70-mer ssDNA and labeled 39-mer dsDNA), stimulation by Pot1 [1]: 2 fold

B1: TTAGGG4 (G4) (ssDNA)
DNA: TTAGGGTTAGGGTTAGGGTTAGGG
binding result (UmPot1 OB3): no binding | binding result [2]: no binding | binding result (UmPot1 OB12 (OB1-OB2)): binds
